The values below come from patent JP2003510672A.

Test [1] has as its target ヒト組換え型CD4 (RepliGen, USA) (human) (UniProt P01730). In words: SPR (BIACORE 2000, 25 C), KD calculated as kd/ka; mimetic immobilised, soluble CD4 injected.
Test [2] has the same target. In words: SPR (BIACORE 2000, 25 C), mimetic immobilised on B1 chip, soluble CD4 injected at 16-330 nM.

For orientation: Kd means a measure of binding affinity in units of concentration. By koff is commonly meant the first-order rate constant of dissociation. The kon is the rate constant with which the complex forms. High values mean faster complex formation, low ones slower complex formation. Regarding “疑似体 Mk3Tyr-long1SH (cyclic peptide mimetic of the ST40 paratope; MK3Tyr with the Ile between Tyr140 and Asn144 replaced by Lys extended with 3-mercaptopropionic acid)”, the Kd in test [1] is 3.2 nM. In test [2], the koff stood at 0.000264 s⁻¹ and the kon was 82600 M⁻¹ s⁻¹.
